From paper PMC6726447 come the findings set out here.

In this experiment the target is HAdV-D26 fiber knob protein (human adenovirus type 26 (HAdV-D26)). Briefly: crystal structure; HAdV-D26K crystals (PACT Premier B01 and B04, pH 4.0 and pH 8.0) soaked in 10 mM Neu5Ac; cubic space group, biological trimer assembled from it.

In turn, “HAdV-D26 fiber knob protein (domain or fragment)” showed a stoichiometry N of 3.

One may read the stoichiometry N as the number of molecules, sites or subunits per partner or assembly.
